From the supplement of paper PMC9112550, “Optimization of the antimicrobial peptide Bac7 by deep mutational scanning” (BMC Biology, 2022)

System: Escherichia coli TOP10
Experiment: shrunken log2 fold change of peptide-encoding DNA abundance (4.5 h post-induction vs induction); higher = less antimicrobial activity (less host growth inhibition)
Conditions: time post-induction: 4.5 h; library: site-saturation at positions 5, 18, 19, 20
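Further: peptides expressed intracellularly from a pBAD plasmid library in pooled LB shake-flask culture, induced with 0.3% L-arabinose, DNA abundance read by NGS, three biological replicates, DESeq2 with apeglm shrinkage.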

Sequence | shrunken log2 fold change
RRIRVRPPRLPRPRPRPLVDPRP | -0.196
RRIRVRPPRLPRPRPRPLVHPRP | -0.145
RRIRVRPPRLPRPRPRPLVPPRP | -0.0493
RRIRVRPPRLPRPRPRPLYHPRP | -0.677
RRIRVRPPRLPRPRPRPLYLPRP | -0.507
RRIRVRPPRLPRPRPRPLYMPRP | -0.128
RRIRVRPPRLPRPRPRPLYSPRP | -0.343
RRIRVRPPRLPRPRPRPMCAPRP | 0.137
RRIRVRPPRLPRPRPRPMDNPRP | 0.0397
RRIRVRPPRLPRPRPRPMDWPRP | -0.138
RRIRVRPPRLPRPRPRPMEQPRP | -0.033
RRIRVRPPRLPRPRPRPMFGPRP | 0.00478
RRIRVRPPRLPRPRPRPMFLPRP | -0.557
RRIRVRPPRLPRPRPRPMFWPRP | 0.285
RRIRVRPPRLPRPRPRPMILPRP | -0.0833
RRIRVRPPRLPRPRPRPMLLPRP | -0.322
RRIRVRPPRLPRPRPRPMLVPRP | 0.0916
RRIRVRPPRLPRPRPRPMNPPRP | -0.421
RRIRVRPPRLPRPRPRPMNSPRP | -0.675
RRIRVRPPRLPRPRPRPMNVPRP | -0.0915
RRIRVRPPRLPRPRPRPMPKPRP | 0.0271
RRIRVRPPRLPRPRPRPMPLPRP | -0.348
RRIRVRPPRLPRPRPRPMPNPRP | -0.116
RRIRVRPPRLPRPRPRPMPPPRP | 0.44
RRIRVRPPRLPRPRPRPMPYPRP | 0.122

Sequence | shrunken log2 fold change
RRIRVRPPRLPRPRPRPMQNPRP | 0.111
RRIRVRPPRLPRPRPRPMQPPRP | -0.0152
RRIRVRPPRLPRPRPRPMQSPRP | 0.292
RRIRVRPPRLPRPRPRPMQTPRP | 0.00859
RRIRVRPPRLPRPRPRPMRPPRP | 0.544
RRIRVRPPRLPRPRPRPMSAPRP | 0.262
RRIRVRPPRLPRPRPRPMTFPRP | -0.0219
RRIRVRPPRLPRPRPRPMTHPRP | -0.352
RRIRVRPPRLPRPRPRPMTKPRP | 0.0648
RRIRVRPPRLPRPRPRPMTNPRP | -0.256
RRIRVRPPRLPRPRPRPMTSPRP | -0.128
RRIRVRPPRLPRPRPRPMTYPRP | -0.494
RRIRVRPPRLPRPRPRPMVLPRP | -0.19
RRIRVRPPRLPRPRPRPMVQPRP | 0.159
RRIRVRPPRLPRPRPRPMWGPRP | -0.174
RRIRVRPPRLPRPRPRPMWIPRP | 0.00541
RRIRVRPPRLPRPRPRPMYHPRP | -0.0185
RRIRVRPPRLPRPRPRPNAHPRP | 0.038
RRIRVRPPRLPRPRPRPNCHPRP | -0.201
RRIRVRPPRLPRPRPRPNDKPRP | -0.351
RRIRVRPPRLPRPRPRPNDLPRP | -0.31
RRIRVRPPRLPRPRPRPNEHPRP | -0.00876
RRIRVRPPRLPRPRPRPNEWPRP | 0.0106
RRIRVRPPRLPRPRPRPNGLPRP | -0.0536
RRIRVRPPRLPRPRPRPNHPPRP | -0.0266

Sequence | shrunken log2 fold change
RRIRVRPPRLPRPRPRPNIYPRP | -0.25
RRIRVRPPRLPRPRPRPNKEPRP | 0.0955
RRIRVRPPRLPRPRPRPNKWPRP | -0.138
RRIRVRPPRLPRPRPRPNLCPRP | -0.292
RRIRVRPPRLPRPRPRPNMMPRP | -0.248
RRIRVRPPRLPRPRPRPNMQPRP | -0.33
RRIRVRPPRLPRPRPRPNNAPRP | -0.0777
RRIRVRPPRLPRPRPRPNNTPRP | -0.418
RRIRVRPPRLPRPRPRPNNWPRP | -0.183
RRIRVRPPRLPRPRPRPNNYPRP | -0.726
RRIRVRPPRLPRPRPRPNRGPRP | 0.108
RRIRVRPPRLPRPRPRPNSHPRP | -0.402
RRIRVRPPRLPRPRPRPNWTPRP | 0.0136
RRIRVRPPRLPRPRPRPNWWPRP | 0.175
RRIRVRPPRLPRPRPRPNYAPRP | -0.192
RRIRVRPPRLPRPRPRPNYKPRP | -0.509
RRIRVRPPRLPRPRPRPNYWPRP | -0.307
RRIRVRPPRLPRPRPRPPAFPRP | 0.068
RRIRVRPPRLPRPRPRPPDRPRP | 0.379
RRIRVRPPRLPRPRPRPPFCPRP | 1.39
RRIRVRPPRLPRPRPRPPGEPRP | 0.511
RRIRVRPPRLPRPRPRPPGQPRP | 0.266
RRIRVRPPRLPRPRPRPPHHPRP | 0.0413
RRIRVRPPRLPRPRPRPPIEPRP | -0.115
RRIRVRPPRLPRPRPRPPKTPRP | 0.152
